Source: article PMC11439726

Tests used:
[1] = molecular target: recombinant human FcRn protein (neonatal Fc receptor) (human) (UniProt P55899)
[2] = molecular target: recombinant human FcRn protein (neonatal Fc receptor) (human) (UniProt P55899); remark: listed apart in the source

Substance | decrease of basal-to-apical transcytosis of CR3022 (400 µg) across WD-HAE cultures with 10-fold excess IVIG (4 mg) as competitor [1] [%] | reduction of basal-to-apical transcytosis of CR3022-LS across WD-HAE cultures with excess IVIG as competitor [2] [%]
CR3022 (human recombinant monoclonal antibody, wildtype IgG1-Fc) | 50 | –
CR3022-LS (CR3022 with Fc containing the LS mutation) (antibody) | – | 20
